Columns and labels:
[1] = biological target: human E2 subunit within hCore (human) (UniProt P10515); experiment: gel densitometry of the purified complex
[2] = biological target: porcine E2 of native PDHc (Sus scrofa domesticus (endogenous in porcine liver)); experiment: gel densitometry of the purified complex
cryo-EM structure = biological target: the molecule itself; experiment: cryo-EM structure

Work on “human E3BP subunit within hCore (from UniProt O00330 54-501) (natural protein)” yielded an E3BP chains per 60-subunit core (E3BP molecules per 60-subunit assembly) [1] of 13.

“porcine E3BP of native PDHc (natural protein)” showed an E3BP chains per 60-subunit core (E3BP molecules per 60-subunit assembly) [2] of 13.

B1: human E2 homo-60-mer (enzyme)
chain: SLPPHQKVPLPSLSPTMQAGTIARWEKKEGDKINEGDLIAEVETDKATVGFESLEECYMAKILVAEGTRDVPIGAIICITVGKPEDIEAFKNYTLDSSAAPTPQAAPAPTPAATASPPTPSAQAPGSSYPPHMQVLLPALSPTMTMGTVQRWEKKVGEKLSEGDLLAEIETDKATIGFEVQEEGYLAKILVPEGTRDVPLGTPLCIIVEKEADISAFADYRPTEVTDLKPQVPPPTPPPVAAVPPTPQPLAPTPSAPCPATPAGPKGRVFVSPLAKKLAVEKGIDLTQVKGTGPDGRITKKDIDSFVPSKVAPAPAAVVPPTGPGMAPVPTGVFTDIPISNIRRVIAQRLMQSKQTIPHYYLSIDVNMGEVLLVRKELNKILEGRSKISVNDFIIKASALACLKVPEANSSWMDTVIRQNHVVDVSVAVSTPAGLITPIVFNAHIKGVETIANDVVSLATKAREGKLQPHEFQGGTFTISNLGMFGIKNFSAIINPPQACILAIGASEDKLVPADNEKGFDVASMMSVTLSCDHRVVDGAVGAQWLAEFRKYLEKPITMLL
For B1, the “stoichiometry N” value (cryo-EM structure) was 60 subunits.

B2: human E2 subunit within hCore (enzyme)
chain: SLPPHQKVPLPSLSPTMQAGTIARWEKKEGDKINEGDLIAEVETDKATVGFESLEECYMAKILVAEGTRDVPIGAIICITVGKPEDIEAFKNYTLDSSAAPTPQAAPAPTPAATASPPTPSAQAPGSSYPPHMQVLLPALSPTMTMGTVQRWEKKVGEKLSEGDLLAEIETDKATIGFEVQEEGYLAKILVPEGTRDVPLGTPLCIIVEKEADISAFADYRPTEVTDLKPQVPPPTPPPVAAVPPTPQPLAPTPSAPCPATPAGPKGRVFVSPLAKKLAVEKGIDLTQVKGTGPDGRITKKDIDSFVPSKVAPAPAAVVPPTGPGMAPVPTGVFTDIPISNIRRVIAQRLMQSKQTIPHYYLSIDVNMGEVLLVRKELNKILEGRSKISVNDFIIKASALACLKVPEANSSWMDTVIRQNHVVDVSVAVSTPAGLITPIVFNAHIKGVETIANDVVSLATKAREGKLQPHEFQGGTFTISNLGMFGIKNFSAIINPPQACILAIGASEDKLVPADNEKGFDVASMMSVTLSCDHRVVDGAVGAQWLAEFRKYLEKPITMLL
modifications: one lipoamide in each of the two lipoyl domains (fully lipoylated by ESI-MS); N-terminal methionine present
B2: binds (cryo-EM structure).

Source: publication PMC466950 (Science Advances, 2024)
